32 molecules from patent US20150037348A1 (AbbVie / Abbott, published 2015) can be followed below.

Numbering of substitutions follows the chain as printed.

First the molecules themselves.
B1: 101-5 (scFv, V domains shown)
VH: QVQLVQSGGGVVQPGRSLRLSCAASGFTFSSYGMHWVRQAPGKGLEWVAFIRYDGSNKYYADSVKGRFTISRDNSKNTLYLQMKSLRAEDTAVYYCTTSGSIDYWGQGTMVTVSS
VL: SYVLTQPPSVSGTPGQRVTISCSGGRSNIGSNTVKWYQQLPGTAPKLLIYGNDQRPSGVPDRFSGSKSGTSASLAITGVQAEDEADYYCQSYDSSLTGSRVFGTGTKVTVL
notes: scFv
B2: B3 (scFv, V domains shown)
VH: B1 VH with T97K, S99H, I102H, Y104N
VL: B1 VL with S94R, S95G, L96T, T97P, G98S, S99Y, R100P, V101T
notes: scFv
B3: 144-F1 (scFv, V domains shown)
VH: B1 VH with T97K, S99H, I102H, Y104N
VL: B1 VL with S94R, S95G, L96H, T97H, G98Y, S99T, R100T, V101F
notes: scFv
B4: 170-35 (scFv, V domains shown)
VH: B1 VH with T97A, S99H, I102Q, Y104N
VL: B1 VL with S94R, S95G, L96F
notes: scFv
B5: 156-3 (scFv, V domains shown)
VH: B1 VH with S99H, I102H, Y104T
VL: B1 VL with S94N, S95G, L96F, S99A
notes: scFv
B6: 101-9 (scFv, V domains shown)
VH: B1 VH with S99H, I102Y
VL: B1 VL
notes: scFv
B7: A5 (scFv, V domains shown)
VH: B1 VH with T97K, S99H, I102H, Y104N
VL: B1 VL with S94R, S95G, L96T, T97H, G98P, R100M, V101L
notes: scFv
B8: A9 (scFv, V domains shown)
VH: B1 VH with T97K, S99H, I102H, Y104N
VL: B1 VL with S94R, S95G, L96P, T97A, G98R, S99T, R100S, V101P
notes: scFv
B9: A6 (scFv, V domains shown)
VH: B1 VH with T97K, S99H, I102H, Y104N
VL: B1 VL with S94R, S95G, L96T, T97H, G98P, S99W, R100L, V101H
notes: scFv
B10: 101-14 (scFv, V domains shown)
VH: B1 VH with S99H, I102Y
VL: B1 VL with S94R, S95G, L96F
notes: scFv
B11: A10 (scFv, V domains shown)
VH: B1 VH with T97K, S99H, I102H, Y104N
VL: B1 VL with S94R, S95G, L96N, T97S, G98P, S99A, R100T
notes: scFv
B12: 170-11 (scFv, V domains shown)
VH: B1 VH with I102Y
VL: B1 VL with S94R, S95G, S99F
notes: scFv
B13: A7 (scFv, V domains shown)
VH: B1 VH with T97K, S99H, I102H, Y104N
VL: B1 VL with S94R, S95G, L96H, T97N, G98N, S99F, R100S, V101P
notes: scFv
B14: B2 (scFv, V domains shown)
VH: B1 VH with T97K, S99H, I102H, Y104N
VL: B1 VL with S94R, S95G, L96R, T97P, G98R, S99H, R100A, V101L
notes: scFv
B15: 170-15 (scFv, V domains shown)
VH: B1 VH with I102Y
VL: B1 VL with S94R, S95G, S99Y, V101L
notes: scFv
B16: 170-19 (scFv, V domains shown)
VH: B1 VH with S99H, I102H, Y104N
VL: B1 VL with S94R, S95G, L96F, G98D, S99Y, R100K
notes: scFv
B17: 177-C6 (scFv, V domains shown)
VH: B1 VH with T97K, S99H, I102H, Y104N
VL: B1 VL with S94R, S95G, L96T, T97H, G98P, S99V, R100P, V101A
notes: scFv
B18: 156-17 (scFv, V domains shown)
VH: B1 VH with S99H, I102H, Y104N
VL: B1 VL with T97W, S99T
notes: scFv
B19: A2 (scFv, V domains shown)
VH: B1 VH with T97K, S99H, I102H, Y104N
VL: B1 VL with S94R, S95G, L96P, T97Y, G98H, S99P, R100I, V101R
notes: scFv
B20: 103-1 (scFv, V domains shown)
VH: B1 VH with S99Q, S101R, I102H, Y104N
VL: B1 VL with S94R, S95G, L96F
notes: scFv
B21: A3 (scFv, V domains shown)
VH: B1 VH with T97K, S99H, I102H, Y104N
VL: B1 VL with S94R, S95G, L96Y, T97P, G98R, S99N, R100I, V101L
notes: scFv
B22: A11 (scFv, V domains shown)
VH: B1 VH with T97K, S99H, I102H, Y104N
VL: B1 VL with S94R, S95G, L96T, T97F, G98P, R100P, V101Q
notes: scFv
B23: A1 (scFv, V domains shown)
VH: B1 VH with T97K, S99H, I102H, Y104N
VL: B1 VL with S94R, S95G, T97P, G98R, S99L, R100T, V101H
notes: scFv
B24: 170-21 (scFv, V domains shown)
VH: B1 VH with S99H, I102Q, Y104N
VL: B1 VL with S94R, S95G, L96F, S99P, V101L
notes: scFv
B25: 170-1 (scFv, V domains shown)
VH: B1 VH with I102Y
VL: B1 VL with S94R, S95G, L96F, S99F, R100K
notes: scFv
B26: 177-H10 (scFv, V domains shown)
VH: B1 VH with T97K, S99H, I102H, Y104N
VL: B1 VL with S94R, S95G, L96T, T97H, G98P, S99T, R100M, V101Y
notes: scFv
B27: B5 (scFv, V domains shown)
VH: B1 VH with T97K, S99H, I102H, Y104N
VL: B1 VL with S94R, S95G, L96Q, T97P, G98H, S99A, R100V, V101L
notes: scFv
B28: 156-1 (scFv, V domains shown)
VH: B1 VH with S99H, I102H, Y104T
VL: B1 VL with S94R, S95D, L96F
notes: scFv
B29: 177-G6 (scFv, V domains shown)
VH: B1 VH with T97K, S99H, I102H, Y104N
VL: B1 VL with S94R, S95G, L96T, T97H, G98P, S99T, R100M, V101I
notes: scFv
B30: A12 (scFv, V domains shown)
VH: B1 VH with T97K, S99H, I102H, Y104N
VL: B1 VL with S94R, S95G, L96T, G98P, S99R, R100P, V101M
notes: scFv
B31: A4 (scFv, V domains shown)
VH: B1 VH with T97K, S99H, I102H, Y104N
VL: B1 VL with S94R, S95G, L96R, T97N, G98P, S99A, R100L, V101T
notes: scFv
B32: 156-6 (scFv, V domains shown)
VH: B1 VH with S99H, I102H, Y104N
VL: B1 VL with S94R, S95D, L96F
notes: scFv

This assay deals with T1, human IL-12 (human, UniProt P29459 23-219; P29460 23-328).
T1 construct: recombinant human IL-12 heterodimer (p35/p40, disulfide-linked); also called hIL-12; rhIL-12
T1 sequence (looked up) 1: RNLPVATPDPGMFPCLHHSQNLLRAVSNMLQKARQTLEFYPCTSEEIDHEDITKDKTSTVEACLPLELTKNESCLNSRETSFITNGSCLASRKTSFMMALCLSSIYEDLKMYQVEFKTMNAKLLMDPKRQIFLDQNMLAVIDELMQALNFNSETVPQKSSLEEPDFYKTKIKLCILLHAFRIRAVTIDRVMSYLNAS
T1 sequence (looked up) 2: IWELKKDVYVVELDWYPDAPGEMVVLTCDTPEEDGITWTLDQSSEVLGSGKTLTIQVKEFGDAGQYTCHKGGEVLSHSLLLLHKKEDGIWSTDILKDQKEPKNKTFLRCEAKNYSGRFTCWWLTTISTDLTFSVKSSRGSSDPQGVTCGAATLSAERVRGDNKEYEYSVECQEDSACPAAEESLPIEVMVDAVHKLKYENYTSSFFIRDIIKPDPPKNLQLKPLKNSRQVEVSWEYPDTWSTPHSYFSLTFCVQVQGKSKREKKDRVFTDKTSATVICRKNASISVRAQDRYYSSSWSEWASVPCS
Kind of assay: SPR (BIAcore), IL-12 chip. An excerpt:
The system utilizes the optical properties of SPR to detect alterations in protein concentrations within a dextran biosensor matrix. Proteins are covalently bound to the dextran matrix at known concentrations. […] To determine the off rate (koff), on rate (kₒₙ), association rate (Ka) and dissociation rate (Kd) constants, BIAcore kinetic evaluation software (version 2.1) was used.
On the technique in general: Surface plasmon resonance follows binding to a sensor surface in real time, without labels.
A word on the koff: it is the first-order rate constant of dissociation. In turn, B1 registered a koff of 0.0445 s⁻¹. The molecule B2 registered a koff of 0.00412 s⁻¹. On to B3, for which the koff was found to be 0.00058 s⁻¹. Molecule B4 returned a dissociation rate constant (koff) of 1e-05 s⁻¹. As for B5, the figure is 0.009 s⁻¹. As for B6, the koff turned out to be 0.00854 s⁻¹. For the molecule B7, the koff was found to be 0.00112 s⁻¹.

In turn, B8 yielded a koff of 0.00798 s⁻¹.

The molecule B9 came in with a koff of 0.00187 s⁻¹. Compared with the last molecule, the koff is about 4.3-fold lower. The molecule B10 displayed a koff of 0.00752 s⁻¹. This koff is about 4-fold higher than that of the molecule before. The molecule B11 gave a koff of 0.00187 s⁻¹.

For B12, the koff is 0.00044 s⁻¹. The figure for B13 is 0.00395 s⁻¹; for B14 it is 0.00361 s⁻¹.

The molecule B15 returned a koff of 0.00443 s⁻¹. The figure for B16 is 0.001 s⁻¹. As for B17, the figure is 0.000794 s⁻¹; as for B18, 0.006 s⁻¹; as for B19, 0.0038 s⁻¹. The figure for B20 is 0.0029 s⁻¹. As to B21, the koff was 0.00251 s⁻¹. The figure for B22 is 0.00207 s⁻¹; for B23 it is 0.00566 s⁻¹; for B24 it is 0.00369 s⁻¹. The figure for B25 is 0.00235 s⁻¹; for B26 it is 0.00344 s⁻¹; for B27 it is 0.00304 s⁻¹. For the molecule B28, the koff came to 0.005 s⁻¹. As for B29, the figure is 0.00055 s⁻¹; as for B30, 0.00143 s⁻¹. As to B31, the off-rate constant (koff) turned out to be 0.00147 s⁻¹. Regarding B32, the koff was found to be 0.003 s⁻¹.
